Measurements taken from the supplement of paper PMC9112550, “Optimization of the antimicrobial peptide Bac7 by deep mutational scanning” (BMC Biology, 2022).

System: Escherichia coli TOP10
Test: shrunken log2 fold change of peptide-encoding DNA abundance (4.5 h post-induction vs induction); higher = less antimicrobial activity (less host growth inhibition)
Settings: time post-induction: 4.5 h; library: site-saturation at positions 5, 18, 19, 20
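Also: peptides expressed intracellularly from a pBAD plasmid library in pooled LB shake-flask culture, induced with 0.3% L-arabinose, DNA abundance read by NGS, three biological replicates, DESeq2 with apeglm shrinkage.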

Sequence | shrunken log2 fold change
RRIRSRPPRLPRPRPRPHMVPRP | -0.112
RRIRSRPPRLPRPRPRPHPAPRP | -0.177
RRIRSRPPRLPRPRPRPHPEPRP | 0.316
RRIRSRPPRLPRPRPRPHPRPRP | 0.375
RRIRSRPPRLPRPRPRPHQCPRP | -0.325
RRIRSRPPRLPRPRPRPHQDPRP | -0.117
RRIRSRPPRLPRPRPRPHRDPRP | -0.141
RRIRSRPPRLPRPRPRPHRKPRP | -0.077
RRIRSRPPRLPRPRPRPHRTPRP | -0.0768
RRIRSRPPRLPRPRPRPHSRPRP | -0.322
RRIRSRPPRLPRPRPRPHTQPRP | -0.433
RRIRSRPPRLPRPRPRPHVFPRP | 2.95
RRIRSRPPRLPRPRPRPHVPPRP | -0.149
RRIRSRPPRLPRPRPRPHWIPRP | -0.279
RRIRSRPPRLPRPRPRPHWMPRP | 0.0168
RRIRSRPPRLPRPRPRPIADPRP | 0.191
RRIRSRPPRLPRPRPRPIAGPRP | -0.00669
RRIRSRPPRLPRPRPRPIAPPRP | -0.0336
RRIRSRPPRLPRPRPRPIASPRP | 0.0102
RRIRSRPPRLPRPRPRPICLPRP | 0.259
RRIRSRPPRLPRPRPRPIDHPRP | -0.273
RRIRSRPPRLPRPRPRPIDLPRP | -0.546
RRIRSRPPRLPRPRPRPIEQPRP | -0.0141
RRIRSRPPRLPRPRPRPIFMPRP | -0.117
RRIRSRPPRLPRPRPRPIFTPRP | -0.275

Sequence | shrunken log2 fold change
RRIRSRPPRLPRPRPRPIGRPRP | 0.104
RRIRSRPPRLPRPRPRPIHGPRP | -0.159
RRIRSRPPRLPRPRPRPIHLPRP | 0.0485
RRIRSRPPRLPRPRPRPIHMPRP | -0.397
RRIRSRPPRLPRPRPRPIHTPRP | -0.112
RRIRSRPPRLPRPRPRPIIFPRP | -0.35
RRIRSRPPRLPRPRPRPIMDPRP | -0.0619
RRIRSRPPRLPRPRPRPIMTPRP | 0.164
RRIRSRPPRLPRPRPRPIMVPRP | -0.644
RRIRSRPPRLPRPRPRPIMYPRP | -0.42
RRIRSRPPRLPRPRPRPINEPRP | -0.249
RRIRSRPPRLPRPRPRPINRPRP | -0.225
RRIRSRPPRLPRPRPRPIQPPRP | 0.117
RRIRSRPPRLPRPRPRPIRVPRP | 0.047
RRIRSRPPRLPRPRPRPISQPRP | -0.387
RRIRSRPPRLPRPRPRPISSPRP | -0.0591
RRIRSRPPRLPRPRPRPITAPRP | -0.0161
RRIRSRPPRLPRPRPRPITNPRP | 0.266
RRIRSRPPRLPRPRPRPITQPRP | -0.0534
RRIRSRPPRLPRPRPRPIVYPRP | -0.255
RRIRSRPPRLPRPRPRPIWRPRP | 0.639
RRIRSRPPRLPRPRPRPIWSPRP | 0.0119
RRIRSRPPRLPRPRPRPIWTPRP | -0.254
RRIRSRPPRLPRPRPRPIWVPRP | 0.0576
RRIRSRPPRLPRPRPRPIYMPRP | -0.533

Sequence | shrunken log2 fold change
RRIRSRPPRLPRPRPRPKADPRP | 0.572
RRIRSRPPRLPRPRPRPKAQPRP | 0.103
RRIRSRPPRLPRPRPRPKCCPRP | -0.0585
RRIRSRPPRLPRPRPRPKCEPRP | -0.125
RRIRSRPPRLPRPRPRPKDLPRP | 0.184
RRIRSRPPRLPRPRPRPKECPRP | -0.043
RRIRSRPPRLPRPRPRPKFPPRP | 0.0385
RRIRSRPPRLPRPRPRPKFSPRP | 0.0488
RRIRSRPPRLPRPRPRPKFYPRP | -0.371
RRIRSRPPRLPRPRPRPKHGPRP | -0.22
RRIRSRPPRLPRPRPRPKHSPRP | -0.572
RRIRSRPPRLPRPRPRPKHTPRP | -0.206
RRIRSRPPRLPRPRPRPKICPRP | -0.0675
RRIRSRPPRLPRPRPRPKKLPRP | 0.0709
RRIRSRPPRLPRPRPRPKKMPRP | -0.178
RRIRSRPPRLPRPRPRPKKPPRP | 0.0165
RRIRSRPPRLPRPRPRPKLGPRP | 0.281
RRIRSRPPRLPRPRPRPKLKPRP | 0.149
RRIRSRPPRLPRPRPRPKMCPRP | -0.015
RRIRSRPPRLPRPRPRPKMHPRP | 0.157
RRIRSRPPRLPRPRPRPKMMPRP | -0.214
RRIRSRPPRLPRPRPRPKMQPRP | 0.055
RRIRSRPPRLPRPRPRPKMVPRP | -0.309
RRIRSRPPRLPRPRPRPKNNPRP | -0.273
RRIRSRPPRLPRPRPRPKNPPRP | -0.11
